Test results from paper PMC12582296.

How the values were obtained:
[1] = biological target: HLA-E (wild type, EGFP at the C-terminus) (human)
[2] = biological target: adaptor protein 2 (AP-2) complex; assay: ELISA-based peptide binding assay; settings: read off a plot

**Q.** RL9 peptide was tested. Which percentage of internalized HLA-E that reappeared on the cell surface within 1 h (recycling assay, HEK293T, peptide pulsing 50 µM) [1] did it give?
**A.** 15%

**Q.** Which percentage of internalized HLA-E that reappeared on the cell surface within 1 h (recycling assay, HEK293T, peptide pulsing 50 µM) [1] does the source give for VL9 peptide here?
**A.** 25%

**Q.** Mtb44 peptide was tested. Which percentage of internalized HLA-E that reappeared on the cell surface within 1 h (recycling assay, HEK293T, peptide pulsing 50 µM) [1] did it give?
**A.** 18%

**Q.** How did the response (absorbance 450) ([2]; parent: est. 0.86) turn out when “CD1b cytoplasmic tail peptide (CD1) (from UniProt P29016) Y5A” was run?
**A.** 0.64

**Q.** Which response (absorbance 450) ([2]; parent: est. 1.5) does the source give for “HLA-E cytoplasmic tail peptide (E) (from UniProt P13747) K310R; K322Q; W325S” here?
**A.** 0.83
